The source of these data is patent US20080108135A1 (University of California, published 2008).

Where two headings read alike, the source gives them in different places.

In assay [1] the target is ErbB2 on tumor cell lines (SKBR3, SK-OV-3, MCF7) (UniProt P04626). Briefly: cell-based or functional assay.
For assay [2] the target is unchanged. Briefly: 5.0 × 10^11 phage on about 1.0 × 10^5 SKBR3 cells at 37 C, surface bound phage eluted with low pH glycine, titered on E. coli TG1.
For assay [3] the target is unchanged.
For assay [4], the target named is T1, ErbB2 (form in the assay not stated) (UniProt P04626 23-1255).
T1 construct: also called c-erbB-2
Briefly: method not stated.

The target of assay [5] is T1, ErbB2 (form in the assay not stated). Briefly: competition by flow cytometry, panel 'C1 phage binding': soluble scFv inhibits binding of C1 phage; % of maximal MFI.

In the case of C6.5 diabody phage, in assay [1], the Lysed cell fraction (titer of internalized phage), SKBR3 cells came to 1.7e+07 phage titer and the cells with internalized phage, confocal microscopy, SKBR3 cells is 20 % of cells. In assay [2], this molecule had a titer of cell surface bound phage, 1st glycine wash of 1.8e+07 phage titer and a titer of cell surface bound phage, 2nd glycine wash of 2.8e+06 phage titer.
Take “C6.5 phage (anti-ErbB2 C6.5 scFv displayed on phage)”: in assay [1], the Lysed cell fraction (titer of internalized phage), SKBR3 cells was 6.8e+07 phage titer. In assay [2], this molecule returned a titer of cell surface bound phage, 1st glycine wash of 1.2e+07 phage titer and a titer of cell surface bound phage, 2nd glycine wash of 5.2e+06 phage titer.
For the molecule C6.5cys scFv conjugated to liposomes, in assay [1], the Total uptake of scFv-conjugated liposomes by SKBR3 cells came to 3.4 and the share of the liposome uptake that was internalized, SKBR3 cells is 70%.
As for irrelevant anti-Botulinum phage (scFv), in assay [3], the titer of cell surface bound phage, 1st glycine wash was determined as 600000 phage titer and the titer of cell surface bound phage, 2nd glycine wash stood at 100000 phage titer. In addition, the Lysed cell fraction (titer of internalized phage), SKBR3 cells in assay [1] was determined as 600000 phage titer.

B1: F5 scFv (native purified soluble scFv) (scFv, not shown: small tags and cut ends)
scFv: QVQLVESGGGLVQPGGSLRLSCAASGFTFRSYAMSWVRQAPGKGLEWVSAISGRGDNTYYADSVKGRFTISRDNSKNTLYLQMNSLRAEDTAVYYCAKMTSNAFAFDYWGQGTLVTVSSGGGGSGGGGSGGGGSQSVLTQPPSVSGAPGQRVTISCTGSSSNIGAGYGVHWYQQLPGTAPKLLIYGNTNRPSGVPDRFSGFKSGTSASLAITGLQAEDEADYYCQSYDSSLSGWVFGGGTKLTVLG
notes: also called 3TF5; scFv-F5
In the case of B1, the Kd (as a rule, the equilibrium constant for the complex coming apart) in assay [4] worked out at 320 nM. Also, the “IC50 (read off the curve)” value in assay [5] is about 200 nM.
